A short description of this data set: yeast display, Sf9 membrane polyspecificity reagent, FACS + sequencing; frameworks hold sequencing errors. In a few lines:
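Nanobodies came from a synthetic yeast display library in Saccharomyces cerevisiae BJ5465, induced with galactose for 36–48 hours and stained for 1 hour at 4 °C with 10% biotinylated, detergent-solubilized Sf9 membrane reagent. Cells were enriched on streptavidin microbeads and then FACS-sorted, with low and high (top ~1%) gates set on anti-HA fluorescence for expression and streptavidin fluorescence for reagent binding. Each polyreactivity label reflects the gate a clone came from. Genes were amplified by colony PCR, sequenced by MiSeq 2 × 250 and filtered by CDR length.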
“QDQLVEAGGGVVQAGGSLRLSCAASVIIIDYYAMAWYRQAPAKERELDAAITSGGSTSYADSVKGRFTISRDNAKNTVYLQMNSLKPEDTAVYYCNNEPSGYQSAYWGQGTQVTVSS”: the “polyreactivity (PSR sort gate)” value is “low polyreactivity”.

“QVQLVESGGGLVQAGGSLRLSCAASGNTFLWYAMGWYRQAPGKEREFVAAIRRSGASTYYADSVKGRFTISRDNAKNTVYLQMNSLKPEDTAVYYCAAKFVYWSGAVYTRYDYWGQGTQVTVSS”: the “polyreactivity (PSR sort gate)” value is “high polyreactivity”.

For the sequence “QVQLVESGGGLVQAGGSLRLSCAASGSIFDPYAMGWYIQAPGKERELVAVINDGGRTTYADSVKGRFTISRDNAKNTVYLQMNSLKPEDTAVYYCAADVGYFKSDYWGQGTQVTVSS”, the “polyreactivity (PSR sort gate)” value was “low polyreactivity”.

Take “QVQLVESGGGLVQAGGSLRLSCAASGRTFKTYAMAWYRQAPGKERELVAAISRDGRTYYADSVKGRFTISRDNAKNTVYLQMNSLKPEDTAVYYCNKRSYRNGDYWGQGTQVTVSS”: the “polyreactivity (PSR sort gate)” value was “low polyreactivity”.

Take “QVQLVESGGGLVQAGGSLRLSCAASGSIFEWYAMGWYRQAPGKERELVAAINSGGSTYYADSVQGRFTISRDNAKNTVYLQMNSLKPEDTAVYYCNYDTLLQDRLGDWYDYDYWGQGTQVTVSS”: the “polyreactivity (PSR sort gate)” value is “low polyreactivity”.

With “QVQLVESGGGLVQAGGSLRLSCAASGSTFYSYAMGWYRQAPGKERELVAAITIISGSTYYADSVKGRFTISRDNAKNTVYLQMNSLKPEDTAVYYCAADSYYSFVPLDEYWGQGTQVTVSS”, the “polyreactivity (PSR sort gate)” value was “high polyreactivity”.

For “QVQLVESGGGLVQAGGSLRLSCAASGSTFYRNAMGWYRQAPGKERELVAGISYGGGSTYYADSVKGRFTISRDNAKNTVYLQMNSLKPEDTAVYYCNAVWVKRHYYYWGQGTQVTVSS”, the “polyreactivity (PSR sort gate)” value was “low polyreactivity”.

Take “QVQLVESGGGLVQAGGSLRLSCAASGFTFNWNDMGWYRQAPGKERELVAAISGGASTYYADSVKGRFTISRDNAKNTVYLQMNSLKPEDTAVYYCAADLDEWGYLFVYWGQGTQVTGSS”: the “polyreactivity (PSR sort gate)” value is “low polyreactivity”.

Turning to “QVQLVDSGGGLVQAGGSLRLSCAASGRTISKYAMGWNRQAPVKERELVAAITGSGGSTHYADSVKGRFTISRDNAKNTVYLQMNSLKPEDSAVYYCAAVPRYQYGYWGQGTQVTVSS”, the “polyreactivity (PSR sort gate)” value is reported as “low polyreactivity”.

Regarding “QVQLVESGGGLVQAGGSLRLSCAASGSIFRLYGKGLYRQAPGKEREFGASITYRGGNTYYADSVKGRFTISRDNAKNTVYLQMNSLKPEDTAVYYCARSGYQKVGGFRYDYWGQGTQVTVSS”, the “polyreactivity (PSR sort gate)” value is given as “low polyreactivity”.

As to “QVQLVESGGGLVQAGGSLRLSCAASGFIFNSYGMGWYRQAPGKERELVAAITKSGGSTYYADSVKGRFTISRDNAKNTVYLQMNSLKPEDTAVYYCAARAYRYSVYRGDYWGQGTQVTVSS”, the “polyreactivity (PSR sort gate)” value is given as “high polyreactivity”.

With “QVQLVESGGGLVQAGGSLRLSCAASGSTYSYYVMGWYRQAPGKERELVAAISRSGGRTYYADSVKGRFTISRDNAKNTVYLQMNSLKPEDTAVNYCAAREFDHPPYDYWGQGTQVTVSS”, the “polyreactivity (PSR sort gate)” value is reported as “high polyreactivity”.

“QVQLVESGGGLVQAGGSLRLSCAASGRTFAYYAMGWYRQAPGKERELVAAISTSGTRTYYADSVKGRFTISRDNAKNTVYLQMNSLKPEDTAVYYCAARYRYQYEFDYWGQGTQVTVSS”: the “polyreactivity (PSR sort gate)” value is “high polyreactivity”.

On to “QVQLVESGGGLVQAGGSLRLRCAASGRTLYRYAMGWYRQAPGKEREFVAAISSSGGSTYYADSVKGSFTISRDNAKNTVYLQMNSLKPEDTAVYYCAARYGSSYAWSNYWGQGTQVTVSS”, for which the “polyreactivity (PSR sort gate)” value is given as “high polyreactivity”.

In the case of “QVQLVESGGGLVQAGGSLRLSCAASGTTFPKYAMGWYRQAPGKERELVAAITRGGRTYYADSVKGRFTISRDNANNTVYLQMNSLKPEDTAVYYCAVVGYARVGMYDYWGQGSQVTVSS”, the “polyreactivity (PSR sort gate)” value is given as “high polyreactivity”.

With “QVQLVESGGGLVQAGGSLRLSCAASGRIFYYYVMGWYRQAPGKEREFVAAISWSASNTYYADSVKGRFTISRDNAKNTVYLQMNSLKPEDTAVYYCAADTLWLDWQGYDYWGQGTQVTVSS”, the “polyreactivity (PSR sort gate)” value is “low polyreactivity”.

Turning to “QVQLVESGGGLVQAGGSLRLSCAASGSIFPLYDMGWYRPAPGKERELVAGISSGGSTNYADSVKGRFTISRDNAKNTVYLQMNSLKPEDTAVYYCAATGSSRYGYWGQGTQVTVSS”, the “polyreactivity (PSR sort gate)” value is listed as “low polyreactivity”.

“QVQLVESGGGLVQAGGSLRLSCASSGRTFGTYAMGSYRQAPGKDSELVAAITSGTRTYYADCVKGRFTISRDNAKNTVYLQMNSQKPEDTSVYYCAAGLVYRWSSTPRRLYYYWGQGTQVTVSS”: the “polyreactivity (PSR sort gate)” value is recorded as “high polyreactivity”.

On to “QVQLVESGGGLVQAGGSLRLSCAASGIIFVKNAMGWYRQAPGKERELVASISGSGGRTYYADSVKGRFTISRDNAKNTVYLQMKSLKPEDTAVYYCNTLLAPHARKARRHDYWGQGTQVTVSS”, for which the “polyreactivity (PSR sort gate)” value is “low polyreactivity”.

As to “QVQLVESGGGLVQVGGSLRLSCAASGITLSYYAMGWYRQAPGKERELVASITVSRTSTYYADSVKGRFTISRDNAKNSVYLQMNSLKPEDTAVYYCAAYAYQYRFSGYGYWGQGTQVTVSS”, the “polyreactivity (PSR sort gate)” value is listed as “low polyreactivity”.

As for “QVQLVESGGGLDQAGGSLGLSCAASGFTFTGYTMGWYRQAPGKERELVATISGSGGNTYYADSVKGRFTISRDNAKNTVYLQMNSLKPEETAVYYCARRRSGPRVLYYYWGQGTQVTVSS”, the “polyreactivity (PSR sort gate)” value is on record as “low polyreactivity”.

As to “QVQLVQSGGGLVQAGGRLRLSSAASGRTFEPNAMGWYRQAPGKERELVAAITNGGSTSYADSVKGRFTISRDNAKNSVYLQMNSLKPEDTAVYDFAGDLGRNLLHTYYYWGQGTQVTVSS”, the “polyreactivity (PSR sort gate)” value is recorded as “low polyreactivity”.

With “EEELVESGGGLVQAGGSLRLSCAASGRTFARNAMGWYRQAPGKERELVAGINFSGGNTYYADSVKGRFTISRDNAKNTVYLQMNSLKPEDTAVYYCAARRYWEGDYWGHGTQVTVSS”, the “polyreactivity (PSR sort gate)” value is “low polyreactivity”.

Regarding “QVQLVESGGGLVQAGGSLRLSCAASGSIFYYNAMGWYRQEPGKERELVATITSAVSTNYADSVKGRFTISRDNAKNTVYLQMNSLKPEDTAVYYCATVYSLSFELDYWGQGTQVTVSS”, the “polyreactivity (PSR sort gate)” value is given as “low polyreactivity”.

As for “QFQLVDSVGGLDQAGGSLRLSSDASGLTLIGNAMGWYRQAPVKERELVASITIGGTTYADSVKGRFTISRDNAKNTVYLQMNSLKPEDTEVYYCAADFSSFSIDTGYDYWGQGTQVTVSS”, the “polyreactivity (PSR sort gate)” value is “low polyreactivity”.

Take “QVQLVESGGGLVQAGGRLRLSCAASGFTFIRSAMGWYRQAPGKERELVAAISWSDDTTYYADSVKGRFTISRDNAKNTVYLQMNSLKPEDTAVYYCAAEVWYSYAEYDYWGQGTQVTVSS”: the “polyreactivity (PSR sort gate)” value was “high polyreactivity”.

As to “QVQLVESGGGLVQAGGSLRVSCAASGLIFYRYAMGWYRQAPGKERELVAAITTRGGSTYYADSVKGRFTISRDNAKITVYLQMNSLKPEDTAVYYCATYFRAKGYTGRYYYWGQGTQVTVSS”, the “polyreactivity (PSR sort gate)” value is “high polyreactivity”.

For the sequence “QVQLVESGGGLVQAGGSLRLSCAAYGFIFPGNAMGWYIQAPGKERELVAAISNSGSRTYYADSVKGRFTISRDNAKNTVYLQMNSLKPEDTAVYYCNADVHNRGWPYDYWGQGTQVTVSS”, the “polyreactivity (PSR sort gate)” value is listed as “low polyreactivity”.

For the sequence “QVQLVESGGGLVQAGGRLRLSCAASGLIIKLYAMGWYRQAPGKERELVAAITDRGGSTYYADSVKGRFTISRDNAKNTVYLQMNSLKPEDTAVYYCAAPYAGWRDGGDYWGQGTQVTVSS”, the “polyreactivity (PSR sort gate)” value is reported as “low polyreactivity”.

For “QVQLVESGGGLVQAGGSLRLSCAASGFILVFYARGWYRPAPGKERELVAAIDWSGTITYYADSVKGRFTISRDNAKNTVYLQMNSLKPEDTAVYYCAADGEPFYDFYYWGQGTQVTVSS”, the “polyreactivity (PSR sort gate)” value was “high polyreactivity”.

(Values after the nanobody polyreactivity screen of Harvey et al. (2022).)
